From patent US6455314 (GENVEC, dated 2002)

T1: coxsackievirus and adenovirus receptor (CAR) (UniProt P78310 20-365)
T1 sequence: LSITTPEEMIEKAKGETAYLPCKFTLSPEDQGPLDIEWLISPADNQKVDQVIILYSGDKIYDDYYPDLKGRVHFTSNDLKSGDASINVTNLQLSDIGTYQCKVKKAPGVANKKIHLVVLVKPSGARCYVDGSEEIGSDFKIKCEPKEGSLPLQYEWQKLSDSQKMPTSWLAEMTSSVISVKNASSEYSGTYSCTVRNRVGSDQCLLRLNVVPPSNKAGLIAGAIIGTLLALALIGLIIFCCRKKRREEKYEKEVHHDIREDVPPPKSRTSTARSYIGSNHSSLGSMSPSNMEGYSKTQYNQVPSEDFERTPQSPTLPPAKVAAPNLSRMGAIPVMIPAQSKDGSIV

B1: native Ad5 fiber knob (ligand)
chain: GAITVGNKNNDKLTLWTTPAPSPNCRLNAEKDAKLTLVLTKCGSQILATVSVLAVKGSLAPISGTVQSAHLIIRFDENGVLLNNSFLDPEYWNFRNGDLTEGTAYTNAVGFMPNLSAYPKSHGKTAKSNIVSQVYLNGDKTKPVTLTITLNGTQETGDTTPSAYSMSFSWDWSGHNYINEIFATSSYTFSYIAQE
B2: Ad5-5 mutant Ad5 fiber knob K(420)A (ligand)
chain: GAITVGNKNNDKLTLWTTPAPSPNCRLNAEKDAALTLVLTKCGSQILATVSVLAVKGSLAPISGTVQSAHLIIRFDENGVLLNNSFLDPEYWNFRNGDLTEGTAYTNAVGFMPNLSAYPKSHGKTAKSNIVSQVYLNGDKTKPVTLTITLNGTQETGDTTPSAYSMSFSWDWSGHNYINEIFATSSYTFSYIAQE
B3: Ad5-3 mutant Ad5 fiber knob RLNAEK(412-417)SLNGGG (ligand)
chain: GAITVGNKNNDKLTLWTTPAPSPNCSLNGGGDAKLTLVLTKCGSQILATVSVLAVKGSLAPISGTVQSAHLIIRFDENGVLLNNSFLDPEYWNFRNGDLTEGTAYTNAVGFMPNLSAYPKSHGKTAKSNIVSQVYLNGDKTKPVTLTITLNGTQETGDTTPSAYSMSFSWDWSGHNYINEIFATSSYTFSYIAQE
B4: Ad5-9 mutant Ad5 fiber knob EGTAY(487-491)GGGGG (ligand)
chain: GAITVGNKNNDKLTLWTTPAPSPNCRLNAEKDAKLTLVLTKCGSQILATVSVLAVKGSLAPISGTVQSAHLIIRFDENGVLLNNSFLDPEYWNFRNGDLTGGGGGTNAVGFMPNLSAYPKSHGKTAKSNIVSQVYLNGDKTKPVTLTITLNGTQETGDTTPSAYSMSFSWDWSGHNYINEIFATSSYTFSYIAQE
B5: Ad5-8 mutant Ad5 fiber knob Y(477)A (ligand)
chain: GAITVGNKNNDKLTLWTTPAPSPNCRLNAEKDAKLTLVLTKCGSQILATVSVLAVKGSLAPISGTVQSAHLIIRFDENGVLLNNSFLDPEAWNFRNGDLTEGTAYTNAVGFMPNLSAYPKSHGKTAKSNIVSQVYLNGDKTKPVTLTITLNGTQETGDTTPSAYSMSFSWDWSGHNYINEIFATSSYTFSYIAQE
B6: Ad5-4 mutant Ad5 fiber knob K(417)G (ligand)
chain: GAITVGNKNNDKLTLWTTPAPSPNCRLNAEGDAKLTLVLTKCGSQILATVSVLAVKGSLAPISGTVQSAHLIIRFDENGVLLNNSFLDPEYWNFRNGDLTEGTAYTNAVGFMPNLSAYPKSHGKTAKSNIVSQVYLNGDKTKPVTLTITLNGTQETGDTTPSAYSMSFSWDWSGHNYINEIFATSSYTFSYIAQE
B7: Ad5-1 mutant Ad5 fiber knob S408E (ligand)
chain: GAITVGNKNNDKLTLWTTPAPEPNCRLNAEKDAKLTLVLTKCGSQILATVSVLAVKGSLAPISGTVQSAHLIIRFDENGVLLNNSFLDPEYWNFRNGDLTEGTAYTNAVGFMPNLSAYPKSHGKTAKSNIVSQVYLNGDKTKPVTLTITLNGTQETGDTTPSAYSMSFSWDWSGHNYINEIFATSSYTFSYIAQE
B8: Ad5-2 mutant Ad5 fiber knob P409A (ligand)
chain: GAITVGNKNNDKLTLWTTPAPSANCRLNAEKDAKLTLVLTKCGSQILATVSVLAVKGSLAPISGTVQSAHLIIRFDENGVLLNNSFLDPEYWNFRNGDLTEGTAYTNAVGFMPNLSAYPKSHGKTAKSNIVSQVYLNGDKTKPVTLTITLNGTQETGDTTPSAYSMSFSWDWSGHNYINEIFATSSYTFSYIAQE

target: T1, coxsackievirus and adenovirus receptor …; assay: cell-based or functional assay

**Q.** B1 was tested. Which “Competition (from IC50 of blocking Ad5-lacZ transduction of A549 cells, β-galactosidase activity)” value (“Competition” for short) did it give?
**A.** 100%

**Q.** Which “Competition” value does the source give for B2 here?
**A.** < 0.1%

**Q.** How did the “Competition” value turn out when B3 was run?
**A.** < 0.1%

**Q.** B4 was tested. Which “Competition” value did it give?
**A.** < 0.1%

**Q.** With B5 as the molecule, how does the “Competition” value read?
**A.** < 0.1%

**Q.** How did the “Competition” value turn out when B6 was run?
**A.** < 0.1%

**Q.** With B7 as the molecule, how does the “Competition” value read?
**A.** < 0.1%

**Q.** B8 was tested. Which “Competition” value did it give?
**A.** < 1%

target: coxsackievirus and adenovirus receptor (CAR) (UniProt P78310); assay: cell-based or functional assay

**Q.** “Ad5-6 mutant Ad5 fiber knob, deletion DPE(474-476) (from UniProt P11818 387-581) (ligand)” was tested. Which Competition (from IC50 of blocking Ad5-lacZ transduction of A549 cells, β-galactosidase activity) did it give?
**A.** < 20%

**Q.** Which Competition (from IC50 of blocking Ad5-lacZ transduction of A549 cells, β-galactosidase activity) does the source give for “F3K (native) (from UniProt P04501 119-319) (ligand)” here?
**A.** < 0.1%

**Q.** With “Ad5-7 mutant Ad5 fiber knob, deletion DPEY(474-477) (from UniProt P11818 387-581) (ligand)” as the molecule, how does the Competition (from IC50 of blocking Ad5-lacZ transduction of A549 cells, β-galactosidase activity) read?
**A.** < 0.1%

**Q.** How did the Competition (from IC50 of blocking Ad5-lacZ transduction of A549 cells, β-galactosidase activity) turn out when “Ad5-10 mutant Ad5 fiber knob, deletion TAYT(489-492) (from UniProt P11818 387-581) (ligand)” was run?
**A.** < 0.1%
